Assay results published in PMC3341351, “Down-Regulation of GABAA Receptor via Promiscuity with the Vasoactive Peptide Urotensin II Receptor. Potential Involvement in Astrocyte Plasticity” (PLoS ONE, 2012).
Entries after “also recorded” stand apart in the source; their conditions may differ. Values belong to the molecule of their own block, whether it stands above or below them. Where no end group is shown, it is not given here.

Tests used:
[1] = biological target: T1, human urotensin II receptor UT, stably expressed in CHO (CHO-UT) (human) (UniProt Q9UKP6)
T1 sequence: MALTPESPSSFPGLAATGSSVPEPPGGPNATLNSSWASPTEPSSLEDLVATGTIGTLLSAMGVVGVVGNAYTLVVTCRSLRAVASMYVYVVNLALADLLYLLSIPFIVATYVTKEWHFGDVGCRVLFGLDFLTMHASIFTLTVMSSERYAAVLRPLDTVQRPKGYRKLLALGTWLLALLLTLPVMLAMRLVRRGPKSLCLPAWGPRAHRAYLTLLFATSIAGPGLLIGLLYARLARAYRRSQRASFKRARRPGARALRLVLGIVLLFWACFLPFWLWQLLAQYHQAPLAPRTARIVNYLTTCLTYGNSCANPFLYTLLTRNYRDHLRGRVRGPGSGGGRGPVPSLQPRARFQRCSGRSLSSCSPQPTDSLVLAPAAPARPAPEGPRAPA

[2] = test system: α2β3γ2 GABAAR in the absence of UT; test: Patch-clamp of Iso-evoked current in CHO expressing α2β3γ2 GABAAR without UT; assay type: cell-based; conditions: DMCM 10^−5 M; hUII and URP 10^−8 M; [Orn^5]-URP and palosuran 10^−6 M; Iso 10^−4 M, 2 s; n = 3–18
Method: (§1) For transfection, cells were trypsinized (0.05%), triturated in HamF-12 containing 10% FBS media, pelleted by centrifugation, resuspended in 100 µl solution V for nucleofection by an Amaxa Nucleofector Device (Köln, Germany; set to program U-016). Experiments were performed on normal CHO or on the stable CHO-UT cells and transiently transfected with combinations of cDNA encoding α2β3γ2, α2β3γ1, α2β1γ2, α2β3γ1, α2β3, β3γ2 (4 µg of cDNA total/transfection) GABAAR subunits. Cells were seeded on 14-mm poly-L-lysine-coated glass bottom insert dishes at 5×10^5 cells in a volume of 0.5 ml/dish. Cells were incubated overnight at 37°C in a humidified incubator (5% CO2) during 16 h before electrophysiological or immunocytochemical experiments.
(§2) GABAA receptor cDNA clones; α2, β1, β3, γ1 and γ2L engineered into the expression vector pCDM8 ([…], β1, γ2) or pcDNA/Amp (β3, γ1), were generously provided by Dr Wingrove (Merk Sharp and Dohme, Harlow, UK). To obtain β3 ^HA or γ2 ^HA epitope-tagged subunits, β3 or γ2 cDNA was amplified and the PCR product was subcloned using the SalI and NotI sites of pCMV-HA (Table S2) after digestion by the same restriction enzymes.
The conventional whole-cell configuration of the patch-clamp technique was used to study the GABA-gated currents in astrocytes and granule neurons, UT stably transfected CHO, CHO-UT, and CHO transiently transfected with diverse variants of UT and GABAAR subunits. After 24-h transfection, cell culture coverslips were placed in a small chamber (1.5 ml) on a stage of a right microscope DMLFSA (Leica, Heidelberg, Germany) and superfused continuously with the following bath solution containing (in mM): NaCl, 150; KCl, 2.5; HEPES, 5; CaCl2, 2; MgCl2, 1; glucose, 10 (pH 7.4 adjusted with NaOH). The patch pipettes were fabricated from 1.5 mm (outer diameter) soft glass tubes on a two-step vertical pipette puller (List-Medical, L/M-3P-A, Darmstadt, Germany). […] ATP and GTP were added to the internal solution used to fill electrode just before recording. All recordings were obtained at RT with cells voltage-clamped at −70 mV. The GABAA receptor agonist isoguvacine was prepared in the extracellular solution and was applied to cells by pneumatic pressure ejection. To prevent desenzitization, isoguvacine was more often ejected during 5 s at 2-min intervals. ATP, GTP, or guanosine 5′-O-(2-thiodiphosphate) (GDPβS) were administered through the patch pipette solution. We investigated the effect of competitive inhibition of GDP-GTP exchange by including GDPβS in the pipette solution (in addition to the normal amount of GTP). For GDPβS and the KIC, immediately following patch rupture, GABA current recordings were performed and the experiment was commenced after an equilibration period of 15 min. […]

[3] = biological target: T2, α2β3γ2 GABAAR co-expressed with human UT (Homo sapiens, UniProt Q9UKP6); test: Patch-clamp of Iso-evoked current in CHO-UT co-expressing α2β3γ2 GABAAR (CHO-UT-GABAAR); assay type: cell-based
T2 construct: expressed in transfected cells; host or cells: CHO-K1 stably expressing human UT (pIRES-neo2-UT), transiently nucleofected with GABAAR subunit cDNAs
T2 sequence (Q9UKP6 1-389): T1 sequence
Method: (§3) CHO-K1 cell lines were obtained from American Type Culture Collection (Manassas, VA, USA). The human UT stable CHO (CHO-UT) was generously provided by Dr Christophe Dubessy (Inserm, Rouen University, France) et generated by CHO electroporation with 20 µg pIRES-neo2-UT DNA and 500 µg sterile sonicated salmon sperm DNA using the EasyJect One electroporation system (Equibio, Angleur, Belgium), followed by repetitive rounds of limiting dilution of cells in G-418 (400 µg/ml) for selection. Normal or stable CHO was grown in Ham-F12 medium supplemented with 10% FBS, 1% antibiotic-antimicotic solution and 2 mM glutamine, at 37°C in a humidified incubator with an atmosphere of 5% CO2. The stable CHO-UT medium was supplemented with the antibiotic G-418 (40 µg/ml).
as §1, §2
The conventional whole-cell configuration of the patch-clamp technique was used to study the GABA-gated currents in astrocytes and granule neurons, UT stably transfected CHO, CHO-UT, and CHO transiently transfected with diverse variants of UT and GABAAR subunits. After 24-h transfection, cell culture coverslips were placed in a small chamber (1.5 ml) on a stage of a right microscope DMLFSA (Leica, Heidelberg, Germany) and superfused continuously with the following bath solution containing (in mM): NaCl, 150; KCl, 2.5; HEPES, 5; CaCl2, 2; MgCl2, 1; glucose, 10 (pH 7.4 adjusted with NaOH). The patch pipettes were fabricated from 1.5 mm (outer diameter) soft glass tubes on a two-step vertical pipette puller (List-Medical, L/M-3P-A, Darmstadt, Germany). […] ATP and GTP were added to the internal solution used to fill electrode just before recording. All recordings were obtained at RT with cells voltage-clamped at −70 mV. The GABAA receptor agonist isoguvacine was prepared in the extracellular solution and was applied to cells by pneumatic pressure ejection. To prevent desenzitization, isoguvacine was more often ejected during 5 s at 2-min intervals. ATP, GTP, or guanosine 5′-O-(2-thiodiphosphate) (GDPβS) were administered through the patch pipette solution. We investigated the effect of competitive inhibition of GDP-GTP exchange by including GDPβS in the pipette solution (in addition to the normal amount of GTP). For GDPβS and the KIC, immediately following patch rupture, GABA current recordings were performed and the experiment was commenced after an equilibration period of 15 min.
All peptide ligands, inhibitors or allosteric modulators of the GABAA receptor function were applied via gravity through a plastic tubing positioned in the vicinity of the cell body in order to maintain a sustained perfusion. In these conditions, drugs could reach the cell of interest after 30 s of perfusion. Isoguvacine was applied focally by pneumatic pressure ejection from a micropipette.

human UT [4] = biological target: T3, human UT (Homo sapiens, UniProt Q9UKP6); conditions: ref [54], [55]; cited from earlier work
T3 construct: expressed in transfected cells; host or cells: CHO-K1 electroporated with pIRES-neo2-UT, G-418 selected
T3 sequence (Q9UKP6 1-389): T1 sequence

human UT [5] = biological target: T3, human UT; test: Fura-2 calcium imaging ([Ca^2+]c) in CHO-UT; assay type: cell-based
Method: as §3
For cell calcium imaging, Fura-2 AM (5 mM, Molecular Probe; Fisher, Cergy-Pontoise, France) was dissolved in 20% pluronic F-127 (w/v, DMSO) and then added to culture medium at final concentrations of 5 µM and 0.02%, with 2.5 mM probenecid (Sigma-Aldrich) respectively. Cells were incubated in the dye solution for 1 h in an humidified atmosphere (37°C, 5% CO2) and then rinsed in the standard extracellular solution used for patch-clamp experiments. For simultaneous measurements of intracellular calcium and chloride-evoked currents in CHO, patch-clamp electrodes were filled with an internal solution containing : KCl, 140; MgCl2, 4; Fura-2-pentoK, 0.25; HEPES, 10; ATP, 1; GTP, 0.1 (pH 7.4 adjusted with KOH). Fluorescence images were acquired with the right microscope DMLFSA (Leica) equipped with a digital CCD camera Coolsnap HQ (Photometrics, Roper scientific, Evry, France). A high-speed scanning polychromatic light source was used for alternate excitations at wavelenghts of 340 and 380 nm. The fluorescence intensities at both wavelenghts (F340 and F380) were mesured every 500 ms. Image acquisition and analysis were obtained with a MetaFluor/Metamorph Imaging System (Roper scientific). The ratio between the two images was proportional to the [Ca^2+]c in the cell under study. Before an experiment, the bath ground level of fluorescence (attributable to autofluorescence and camera noise) was determined and systematically substracted.

[6] = biological target: T1, human urotensin II receptor UT, stably expressed in CHO (CHO-UT) (human); remark: listed apart in the source

Molecule: URP: paralog urotensin II-related peptide sharing the fully conserved C-terminal cyclic CFWKYC core
Effect on Iso-evoked current in the absence of UT [2]: failed to affect the amplitude of the current
Inhibition of Iso-evoked current ([3]; 10^−8 M, Iso 10^−4 M, mean ± SEM, hUII n = 54, URP n = 12): 22.9±3.5%
Persistence/reversibility of current inhibition during washout ([3]; 10^−8 M, Iso-evoked current): slightly recovered during washout; also recorded: triggers a reversible inhibition
Reversibility of [Ca^2+]c increase during washout (human UT [5]; 10^−8 M): totally recovered after 16-min washout; also recorded: recovered to the basal line level
Increase of the amplitude of baseline [Ca^2+]c (human UT [5]; hUII and URP 10^−8 M, [Orn^5]-URP 10^−6 M, mean from 9 to 25 cells): 341%

Molecule: ACFWKYCV (also: cyclic CFWKYC core, bridge type not given here) [urotensin II-related peptide]
inhibition of the isoguvacine-evoked chloride current (whole-cell patch clamp) in CHO-UT co-expressing alpha2beta3gamma2 GABAAR, URP 10^-8 M (n = 12) [6]: 22.9%
increase of the amplitude of baseline [Ca^2+]c (Fura-2 imaging) in CHO-UT, URP 10^-8 M in the bath; recovered after 16-min washout [1]: 341%

More lines, main results first:

[Ca^2+]c increase (Fura-2 imaging) in CHO-UT, [Orn^5]-URP 10^-6 M; behaved as a partial agonist and prevented the sustained effect of hUII on [Ca^2+]c [1]: 265%
Molecule: [Orn^5]-URP (peptide)

Effect/profile of antagonist on [Ca^2+]c (human UT [5]; 10^−6 M): failed to evoke a [Ca^2+]c rise
Molecule: Cc1cc(NC(=O)NCCN2CCC(O)(Cc3ccccc3)CC2)c2ccccc2n1.O=S(=O)(O)O [palosuran, 1-[2-(4-benzyl-4-hydroxy-piperidin-1-yl)-ethyl]-3-(2-methyl-quinolin-4-yl) -urea sulfate salt]
Effect on Iso-evoked current in the absence of UT [2]: did not modulate the Iso-evoked current
Effect of UT antagonist alone on Iso-evoked current ([3]; 10^−6 M, n = 7–54): mimicked the hUII-induced inhibition of the Iso-evoked current; also recorded: mimics the effect of UII by inhibiting the chloride current
Effect on prolonged/irreversible action of hUII during washout on Iso-evoked current ([3]; antagonist 10^−6 M with hUII): abolished the irreversible action of hUII during washout
Affinity toward human UT (human UT [4]): high affinity
Effect on hUII-induced [Ca^2+]c increase (human UT [5]; antagonist 10^−6 M before and during hUII): completely blocked the hUII-induced [Ca^2+]c increase; also recorded: counteracts the UII-evoked [Ca^2+]c increase
